According to the supplement of paper PMC10126150:
± gives the standard deviation of the averaged measurements.

Test system: ATP
Experiment: switch fluorescence ratio, 500 uM ATP over buffer (Cy3 cluster intensity, sum of 5 cycles each) (fold (ratio)); higher = stronger signal-on switching upon ATP binding; sequences stand for … in TCGTCGGCAGCGTCAGATGTGTATAAGAGACAGTTTTTTTTTTTTTTTTTTTTTTTTT…TC
Conditions: aptamer strand: ATP DNA aptamer (quencher-CACCTGGGGGAGTATTGCGGAGGAAGG + anchor), 100 nM annealed; ATP concentration: 500 uM
In short: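 Switching-strand clusters labelled with Cy3 on a modified Illumina MiSeq flow-cell were annealed to 100 nM quencher-labelled ATP aptamer, imaged in selection buffer, and re-imaged after 15 min with 500 uM ATP at 22 °C. This was done over five cycles with NaOH stripping and re-annealing in between. The fluorescence ratio is summed target-cycle over summed buffer-cycle Cy3 intensity per cluster, averaged per switch-domain sequence, excluding clusters outside 100-1000 RFU.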
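Also: ATP exposure 15 min at 22 °C before imaging.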

AAGGGAAGCG
switch fluorescence ratio: 1.01 ± 0.039

AAGGGACTTG
switch fluorescence ratio: 0.995 ± 0.018

AAGGGCAGGG
switch fluorescence ratio: 1.03 ± 0.029

AAGGGCAGGT
switch fluorescence ratio: 1.01 ± 0.03

AAGGGCCAGC
switch fluorescence ratio: 0.9896 ± 0.0042

AAGGGCCGTG
switch fluorescence ratio: 1.02 ± 0.04

AAGGGCCTTC
switch fluorescence ratio: 1.025 ± 0.0071

AAGGGCGCTC
switch fluorescence ratio: 0.975 ± 0.032

AAGGGCGGC
switch fluorescence ratio: 1.03 ± 0.018

AAGGGCTACG
switch fluorescence ratio: 0.983 ± 0.04

AAGGGCTAGA
switch fluorescence ratio: 1 ± 0.016

AAGGGGAAAG
switch fluorescence ratio: 0.998 ± 0.025

AAGGGGAACT
switch fluorescence ratio: 0.9907 ± 0.0043

AAGGGGAGAG
switch fluorescence ratio: 0.993 ± 0.018

AAGGGGCACT
switch fluorescence ratio: 1.02 ± 0.047

AAGGGGCAGG
switch fluorescence ratio: 1.04 ± 0.084

AAGGGGCCCT
switch fluorescence ratio: 1.0195 ± 0.00095

AAGGGGCCGA
switch fluorescence ratio: 0.994 ± 0.034

AAGGGGCCGC
switch fluorescence ratio: 0.982 ± 0.026

AAGGGGGAAG
switch fluorescence ratio: 0.971 ± 0.015

AAGGGGGAAT
switch fluorescence ratio: 1.05 ± 0.031

AAGGGGGAGA
switch fluorescence ratio: 0.994 ± 0.03

AAGGGGGCGT
switch fluorescence ratio: 1 ± 0.026

AAGGGGGG
switch fluorescence ratio: 0.994 ± 0.062

AAGGGGGGAA
switch fluorescence ratio: 1.06 ± 0.21

AAGGGGGGGC
switch fluorescence ratio: 0.998 ± 0.062

AAGGGGTGGA
switch fluorescence ratio: 1.01 ± 0.05

AAGGGTGGTC
switch fluorescence ratio: 0.957 ± 0.012

AAGGGTTAAG
switch fluorescence ratio: 0.9975 ± 0.006

AAGGGTTGAG
switch fluorescence ratio: 0.981 ± 0.046

AAGGGTTGTT
switch fluorescence ratio: 1.01 ± 0.032

AAGGGTTTGA
switch fluorescence ratio: 1.032 ± 0.0096

AAGGTACCGG
switch fluorescence ratio: 1.01 ± 0.03

AAGGTACCGT
switch fluorescence ratio: 1.05 ± 0.055

AAGGTAGGGC
switch fluorescence ratio: 1.014 ± 0.008

AAGGTATATA
switch fluorescence ratio: 0.9938 ± 0.0031

AAGGTATCTG
switch fluorescence ratio: 1.03 ± 0.03

AAGGTATGC
switch fluorescence ratio: 1.01 ± 0.048

AAGGTATGTT
switch fluorescence ratio: 0.981 ± 0.021

AAGGTCAAGG
switch fluorescence ratio: 1.015 ± 0.0056

AAGGTCATTT
switch fluorescence ratio: 1 ± 0.034

AAGGTCCAGT
switch fluorescence ratio: 1.13 ± 0.23

AAGGTCCGCT
switch fluorescence ratio: 1.05 ± 0.02

AAGGTCTATT
switch fluorescence ratio: 0.998 ± 0.06

AAGGTCTGAG
switch fluorescence ratio: 1.02 ± 0.043

AAGGTCTGGT
switch fluorescence ratio: 0.985 ± 0.038

AAGGTGAGGG
switch fluorescence ratio: 1.03 ± 0.02

AAGGTGGGGG
switch fluorescence ratio: 0.991 ± 0.033

AAGGTGTGGG
switch fluorescence ratio: 1.01 ± 0.015

AAGGTGTTTG
switch fluorescence ratio: 1.05 ± 0.04

AAGGTTAAGG
switch fluorescence ratio: 0.993 ± 0.025

AAGGTTAATG
switch fluorescence ratio: 1 ± 0.016

AAGGTTAGGG
switch fluorescence ratio: 0.984 ± 0.029

AAGGTTATCT
switch fluorescence ratio: 1.005 ± 0.0068

AAGGTTCGAT
switch fluorescence ratio: 0.984 ± 0.049

AAGGTTGCGG
switch fluorescence ratio: 1 ± 0.037

AAGGTTTGTA
switch fluorescence ratio: 0.9899 ± 0.0068

AAGGTTTTTA
switch fluorescence ratio: 0.993 ± 0.029

AAGTAACGGT
switch fluorescence ratio: 1.02 ± 0.047

AAGTAAGTAG
switch fluorescence ratio: 1.01 ± 0.021

AAGTACTATC
switch fluorescence ratio: 1.26 ± 0.025

AAGTACTTGA
switch fluorescence ratio: 1.12 ± 0.052

AAGTAGATTG
switch fluorescence ratio: 1.003 ± 0.0081

AAGTAGGCGC
switch fluorescence ratio: 0.9958 ± 0.008

AAGTATAGC
switch fluorescence ratio: 1.02 ± 0.044

AAGTCATTTT
switch fluorescence ratio: 1.026 ± 0.0017

AAGTCCAATG
switch fluorescence ratio: 1.01 ± 0.023

AAGTCCGATA
switch fluorescence ratio: 0.9941 ± 0.0038

AAGTCGTTCG
switch fluorescence ratio: 0.989 ± 0.016

AAGTCTCTCC
switch fluorescence ratio: 1.06 ± 0.018

AAGTCTGCAG
switch fluorescence ratio: 1.002 ± 0.01

AAGTCTGTTA
switch fluorescence ratio: 0.994 ± 0.032

AAGTCTGTTT
switch fluorescence ratio: 1.03 ± 0.028

AAGTGAATGG
switch fluorescence ratio: 0.9986 ± 0.0032

AAGTGACCTT
switch fluorescence ratio: 1.135 ± 0.0039

AAGTGAGGGG
switch fluorescence ratio: 0.998 ± 0.028

AAGTGCGATC
switch fluorescence ratio: 1.04 ± 0.019

AAGTGGCTTT
switch fluorescence ratio: 1 ± 0.014

AAGTGGGCGT
switch fluorescence ratio: 1.01 ± 0.046

AAGTGGGGA
switch fluorescence ratio: 0.986 ± 0.018

AAGTGGGGCT
switch fluorescence ratio: 1.005 ± 0.0094

AAGTGGGGGA
switch fluorescence ratio: 1.02 ± 0.015

AAGTGGGGTA
switch fluorescence ratio: 1.03 ± 0.022

AAGTGGGTGT
switch fluorescence ratio: 0.99 ± 0.059

AAGTGGGTTT
switch fluorescence ratio: 1.02 ± 0.037

AAGTGTCTTG
switch fluorescence ratio: 0.999 ± 0.05

AAGTGTTAAT
switch fluorescence ratio: 0.9955 ± 0.0031

AAGTTACGT
switch fluorescence ratio: 1.06 ± 0.025

AAGTTAGACA
switch fluorescence ratio: 1.021 ± 0.0087

AAGTTAGTTA
switch fluorescence ratio: 1.03 ± 0.02

AAGTTCAGTA
switch fluorescence ratio: 0.9673 ± 0.0084

AAGTTCAGTG
switch fluorescence ratio: 1.014 ± 0.0068

AAGTTCTGGA
switch fluorescence ratio: 0.976 ± 0.07

AAGTTGGGGC
switch fluorescence ratio: 0.989 ± 0.032

AAGTTGGTCT
switch fluorescence ratio: 1.02 ± 0.018

AAGTTGGTTC
switch fluorescence ratio: 0.98 ± 0.052

AAGTTGTATG
switch fluorescence ratio: 0.9787 ± 0.0025

AAGTTGTTAT
switch fluorescence ratio: 0.986 ± 0.045

AAGTTTAGCA
switch fluorescence ratio: 1.01 ± 0.021

AAGTTTATTT
switch fluorescence ratio: 0.973 ± 0.051

AAGTTTCGAG
switch fluorescence ratio: 0.983 ± 0.017

AAGTTTCGGG
switch fluorescence ratio: 0.987 ± 0.027

AAGTTTTCAG
switch fluorescence ratio: 0.97 ± 0.021

AAGTTTTGGT
switch fluorescence ratio: 0.964 ± 0.019

AATAAAAAGG
switch fluorescence ratio: 0.991 ± 0.019

AATAAAAAGT
switch fluorescence ratio: 0.982 ± 0.023

AATAAAAGAT
switch fluorescence ratio: 1 ± 0.017

AATAAAATT
switch fluorescence ratio: 1.03 ± 0.076

AATAAACGGG
switch fluorescence ratio: 1.03 ± 0.015

AATAAAGAGT
switch fluorescence ratio: 0.974 ± 0.015

AATAAAGGAT
switch fluorescence ratio: 1 ± 0.017

AATAACAAAA
switch fluorescence ratio: 0.995 ± 0.037

AATAACCAGT
switch fluorescence ratio: 1.02 ± 0.016

AATAAGAGGG
switch fluorescence ratio: 1.01 ± 0.026

AATAAGGAGA
switch fluorescence ratio: 1.01 ± 0.019

AATAAGGGGA
switch fluorescence ratio: 1.02 ± 0.077

AATAAGGTAT
switch fluorescence ratio: 0.965 ± 0.014

AATAAGTTTT
switch fluorescence ratio: 0.969 ± 0.037

AATAATGTTG
switch fluorescence ratio: 0.998 ± 0.015

AATAATTGTG
switch fluorescence ratio: 1.02 ± 0.028

AATACAGCAT
switch fluorescence ratio: 1.03 ± 0.014

AATACCATCG
switch fluorescence ratio: 1.05 ± 0.033

AATACGACGG
switch fluorescence ratio: 1.14 ± 0.014

AATACGAGAG
switch fluorescence ratio: 1.03 ± 0.019

AATACGAGTC
switch fluorescence ratio: 1.09 ± 0.022

AATAGAAAAT
switch fluorescence ratio: 0.97 ± 0.061

AATAGAATTA
switch fluorescence ratio: 1 ± 0.018

AATAGAGTGG
switch fluorescence ratio: 0.99 ± 0.024

AATAGCATGG
switch fluorescence ratio: 1.03 ± 0.024

AATAGCTAGT
switch fluorescence ratio: 0.99272 ± 0.00015

AATAGGACGG
switch fluorescence ratio: 1.03 ± 0.022

AATAGGGCAG
switch fluorescence ratio: 1.009 ± 0.0078

AATAGGGGTA
switch fluorescence ratio: 0.987 ± 0.029

AATAGGGTG
switch fluorescence ratio: 1.08 ± 0.07

AATAGGTAG
switch fluorescence ratio: 0.976 ± 0.014

AATAGGTTAG
switch fluorescence ratio: 1.001 ± 0.0075

AATAGTTACT
switch fluorescence ratio: 1.0234 ± 0.00037

AATAGTTAGG
switch fluorescence ratio: 1.02 ± 0.012

AATAGTTTAG
switch fluorescence ratio: 0.9918 ± 0.0035

AATATAGCGT
switch fluorescence ratio: 0.969 ± 0.021

AATATAGTTG
switch fluorescence ratio: 1.02 ± 0.018

AATATGAGGG
switch fluorescence ratio: 1.01 ± 0.042

AATATGTGTG
switch fluorescence ratio: 0.97933 ± 0.00034

AATATTAGGC
switch fluorescence ratio: 1.03 ± 0.03

AATATTCTGT
switch fluorescence ratio: 0.9923 ± 0.0029

AATATTTAGT
switch fluorescence ratio: 1 ± 0.024

AATATTTTCC
switch fluorescence ratio: 1.04 ± 0.052

AATATTTTTG
switch fluorescence ratio: 1 ± 0.019

AATCAAGTAG
switch fluorescence ratio: 0.9821 ± 0.0086

AATCACGGTG
switch fluorescence ratio: 1.05 ± 0.052

AATCAGCCTC
switch fluorescence ratio: 1.01 ± 0.016

AATCAGCGGT
switch fluorescence ratio: 1.02 ± 0.028

AATCATTCCG
switch fluorescence ratio: 1.07 ± 0.041

AATCATTGTA
switch fluorescence ratio: 1.01 ± 0.039

AATCCCGCCA
switch fluorescence ratio: 1.19 ± 0.034

AATCCGGGGC
switch fluorescence ratio: 2.35 ± 1.6

AATCCTAAGG
switch fluorescence ratio: 1.02 ± 0.048

AATCCTATCA
switch fluorescence ratio: 1.02 ± 0.014

AATCGCAACG
switch fluorescence ratio: 1.02 ± 0.022

AATCGCTGGG
switch fluorescence ratio: 0.988 ± 0.022

AATCGGGAA
switch fluorescence ratio: 0.9868 ± 0.0041

AATCGGGTAT
switch fluorescence ratio: 0.984 ± 0.027

AATCGGTCAC
switch fluorescence ratio: 0.998 ± 0.025

AATCGGTCTG
switch fluorescence ratio: 1.03 ± 0.02

AATCGGTGCG
switch fluorescence ratio: 0.986 ± 0.049

AATCGTATCC
switch fluorescence ratio: 1.01 ± 0.029

AATCGTCAGG
switch fluorescence ratio: 1.01 ± 0.012

AATCTAATTG
switch fluorescence ratio: 1.002 ± 0.0038

AATCTGCTCG
switch fluorescence ratio: 0.9864 ± 0.002

AATCTGGGGC
switch fluorescence ratio: 0.968 ± 0.011

AATCTGGTGT
switch fluorescence ratio: 1.02 ± 0.054

AATCTTGAGG
switch fluorescence ratio: 1.01 ± 0.028

AATCTTTATT
switch fluorescence ratio: 1.008 ± 0.0018

AATGAAGGCA
switch fluorescence ratio: 1.005 ± 0.0049

AATGAATGAG
switch fluorescence ratio: 0.971 ± 0.022

AATGAATTGT
switch fluorescence ratio: 1.02 ± 0.022

AATGAGTATA
switch fluorescence ratio: 0.9915 ± 0.007

AATGCCAGGG
switch fluorescence ratio: 1.02 ± 0.026

AATGCCTGGT
switch fluorescence ratio: 0.984 ± 0.022

AATGCGGGGA
switch fluorescence ratio: 1.03 ± 0.017

AATGCGGTAT
switch fluorescence ratio: 1.01 ± 0.023

AATGCGTGTG
switch fluorescence ratio: 1.12 ± 0.15

AATGCTGTTG
switch fluorescence ratio: 0.991 ± 0.02

AATGCTTGTC
switch fluorescence ratio: 0.952 ± 0.048

AATGCTTTGG
switch fluorescence ratio: 1.007 ± 0.0095

AATGGAAGGG
switch fluorescence ratio: 1.01 ± 0.013

AATGGAGATT
switch fluorescence ratio: 0.985 ± 0.031

AATGGATGTT
switch fluorescence ratio: 1.05 ± 0.12

AATGGCAGGA
switch fluorescence ratio: 0.998 ± 0.016

AATGGCAGTC
switch fluorescence ratio: 1.03 ± 0.05

AATGGCCTA
switch fluorescence ratio: 1.03 ± 0.046

AATGGCGGCC
switch fluorescence ratio: 1.03 ± 0.039

AATGGCTGTG
switch fluorescence ratio: 0.972 ± 0.033

AATGGGAAGG
switch fluorescence ratio: 0.971 ± 0.028

AATGGGACTT
switch fluorescence ratio: 1.02 ± 0.015

AATGGGATAC
switch fluorescence ratio: 1.16 ± 0.027

AATGGGGGAC
switch fluorescence ratio: 1.001 ± 0.0025

AATGGGGGAG
switch fluorescence ratio: 0.981 ± 0.0099

AATGGGGGCA
switch fluorescence ratio: 1.007 ± 0.0076

AATGGGGTAC
switch fluorescence ratio: 1.009 ± 0.0087
